Positions of bridges follow the written chain, without caps; N, C: chain ends. No end group written: not given here.
Target: thioredoxin reductase
Assay: cell-based or functional assay

GTCVNVGCIPRQIKIWFQNRRMKWKK (disulfide 3-8 (inferred)) [peptide YJB02]
IC50 of thioredoxin reductase activity (DTNB reduction, absorbance at 405-414 nM): 36 nM
